According to article PMC9463131, “SLITRK1-mediated noradrenergic projection suppression in the neonatal prefrontal cortex” (Communications Biology, 2022):

Legend:
Assay in all cases: BLI
[1] = target: T1, human Neurofascin ECD-His6 (8208-NF-050, R&D Systems) (human)
T1 chain: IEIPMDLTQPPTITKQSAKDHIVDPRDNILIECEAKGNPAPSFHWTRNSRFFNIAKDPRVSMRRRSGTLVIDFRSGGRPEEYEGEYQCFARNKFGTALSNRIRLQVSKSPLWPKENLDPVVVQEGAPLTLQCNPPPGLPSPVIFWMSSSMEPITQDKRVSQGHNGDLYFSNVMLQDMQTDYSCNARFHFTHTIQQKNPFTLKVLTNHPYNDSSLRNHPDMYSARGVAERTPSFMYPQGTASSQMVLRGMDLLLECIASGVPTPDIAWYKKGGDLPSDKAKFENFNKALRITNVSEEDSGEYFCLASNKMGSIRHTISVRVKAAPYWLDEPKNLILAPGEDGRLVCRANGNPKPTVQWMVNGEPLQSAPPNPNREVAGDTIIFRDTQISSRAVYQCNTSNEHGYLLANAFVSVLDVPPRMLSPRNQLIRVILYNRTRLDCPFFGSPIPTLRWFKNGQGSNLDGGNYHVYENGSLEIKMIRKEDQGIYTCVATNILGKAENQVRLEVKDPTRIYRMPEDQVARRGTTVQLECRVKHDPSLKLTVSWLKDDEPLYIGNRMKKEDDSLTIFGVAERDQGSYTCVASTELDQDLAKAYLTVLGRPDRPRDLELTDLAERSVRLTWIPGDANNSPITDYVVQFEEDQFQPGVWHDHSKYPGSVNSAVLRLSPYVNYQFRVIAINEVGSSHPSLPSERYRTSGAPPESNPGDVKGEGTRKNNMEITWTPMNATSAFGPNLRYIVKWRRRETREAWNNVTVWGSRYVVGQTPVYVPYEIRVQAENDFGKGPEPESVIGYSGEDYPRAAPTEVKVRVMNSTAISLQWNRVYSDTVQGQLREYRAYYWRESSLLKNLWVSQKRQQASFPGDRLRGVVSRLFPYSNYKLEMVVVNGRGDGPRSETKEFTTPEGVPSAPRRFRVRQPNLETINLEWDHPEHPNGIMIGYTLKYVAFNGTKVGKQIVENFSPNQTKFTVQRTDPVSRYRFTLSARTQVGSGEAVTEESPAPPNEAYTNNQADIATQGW

[2] = target: T2, human PTPRD ECD-His6 (ACROBiosystems) (human, UniProt P23468 21-1265)
T2 chain: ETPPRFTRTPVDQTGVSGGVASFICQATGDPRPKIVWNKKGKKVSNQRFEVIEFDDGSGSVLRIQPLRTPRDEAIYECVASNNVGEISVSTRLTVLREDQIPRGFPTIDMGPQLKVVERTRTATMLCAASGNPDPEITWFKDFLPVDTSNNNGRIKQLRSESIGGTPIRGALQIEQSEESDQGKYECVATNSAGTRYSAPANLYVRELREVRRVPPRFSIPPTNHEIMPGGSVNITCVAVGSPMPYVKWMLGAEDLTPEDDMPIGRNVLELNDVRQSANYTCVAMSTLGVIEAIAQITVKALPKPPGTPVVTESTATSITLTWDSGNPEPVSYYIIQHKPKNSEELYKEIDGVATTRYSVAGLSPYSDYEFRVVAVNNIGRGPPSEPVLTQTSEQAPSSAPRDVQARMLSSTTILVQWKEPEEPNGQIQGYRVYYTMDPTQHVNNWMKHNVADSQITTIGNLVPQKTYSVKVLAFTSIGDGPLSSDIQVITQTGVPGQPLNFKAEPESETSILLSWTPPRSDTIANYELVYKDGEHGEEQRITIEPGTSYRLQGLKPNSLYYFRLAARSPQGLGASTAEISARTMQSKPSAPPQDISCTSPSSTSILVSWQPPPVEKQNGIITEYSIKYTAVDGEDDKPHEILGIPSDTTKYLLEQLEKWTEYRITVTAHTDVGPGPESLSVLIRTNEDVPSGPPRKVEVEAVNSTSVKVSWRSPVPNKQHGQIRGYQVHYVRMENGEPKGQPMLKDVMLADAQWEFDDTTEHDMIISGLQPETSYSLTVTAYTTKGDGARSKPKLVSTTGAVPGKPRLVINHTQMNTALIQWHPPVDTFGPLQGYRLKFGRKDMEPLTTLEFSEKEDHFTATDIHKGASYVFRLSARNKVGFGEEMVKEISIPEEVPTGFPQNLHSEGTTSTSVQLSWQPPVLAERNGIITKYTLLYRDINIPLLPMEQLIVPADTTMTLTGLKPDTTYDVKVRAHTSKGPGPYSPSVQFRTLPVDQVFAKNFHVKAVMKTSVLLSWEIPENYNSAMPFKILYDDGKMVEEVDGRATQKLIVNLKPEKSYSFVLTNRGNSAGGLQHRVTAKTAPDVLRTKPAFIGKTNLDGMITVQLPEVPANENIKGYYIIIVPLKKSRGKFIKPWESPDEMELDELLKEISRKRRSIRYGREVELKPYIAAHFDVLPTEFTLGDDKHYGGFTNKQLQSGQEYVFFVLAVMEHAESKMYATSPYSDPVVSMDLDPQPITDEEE

[3] = target: T3, L1CAM ECD-His6 (777-NC-100, R&D Systems) (UniProt P32004 20-1120)
T3 chain: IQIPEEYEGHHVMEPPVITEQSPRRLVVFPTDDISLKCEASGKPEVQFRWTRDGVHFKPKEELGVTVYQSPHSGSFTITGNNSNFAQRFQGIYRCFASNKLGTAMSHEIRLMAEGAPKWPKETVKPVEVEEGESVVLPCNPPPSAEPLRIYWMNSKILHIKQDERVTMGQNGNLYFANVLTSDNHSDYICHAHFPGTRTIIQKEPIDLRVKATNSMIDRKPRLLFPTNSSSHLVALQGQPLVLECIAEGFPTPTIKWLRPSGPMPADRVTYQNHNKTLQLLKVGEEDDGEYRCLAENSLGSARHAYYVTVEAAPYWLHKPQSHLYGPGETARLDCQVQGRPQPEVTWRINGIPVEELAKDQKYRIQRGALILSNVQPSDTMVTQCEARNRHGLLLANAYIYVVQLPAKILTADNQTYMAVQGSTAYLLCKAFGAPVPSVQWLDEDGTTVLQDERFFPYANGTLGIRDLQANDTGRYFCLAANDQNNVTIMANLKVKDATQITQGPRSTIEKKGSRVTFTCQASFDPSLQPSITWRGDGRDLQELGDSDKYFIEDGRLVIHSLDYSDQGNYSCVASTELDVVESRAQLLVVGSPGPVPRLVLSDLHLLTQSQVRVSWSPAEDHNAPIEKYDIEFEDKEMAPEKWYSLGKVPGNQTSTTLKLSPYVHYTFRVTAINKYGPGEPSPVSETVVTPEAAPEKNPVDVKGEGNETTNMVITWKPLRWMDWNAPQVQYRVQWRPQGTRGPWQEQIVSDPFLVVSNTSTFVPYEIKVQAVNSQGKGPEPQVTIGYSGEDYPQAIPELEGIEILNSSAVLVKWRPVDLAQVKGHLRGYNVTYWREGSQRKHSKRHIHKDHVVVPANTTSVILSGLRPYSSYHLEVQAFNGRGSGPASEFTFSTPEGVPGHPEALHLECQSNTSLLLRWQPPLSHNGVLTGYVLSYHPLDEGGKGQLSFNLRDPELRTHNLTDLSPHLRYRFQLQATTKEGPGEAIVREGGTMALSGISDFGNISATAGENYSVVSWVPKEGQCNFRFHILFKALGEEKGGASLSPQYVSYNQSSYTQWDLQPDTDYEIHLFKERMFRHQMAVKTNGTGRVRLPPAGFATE

koff [1]: 0.00256 s⁻¹
koff [2]: 0.00351 s⁻¹
koff [3]: 0.00088 s⁻¹
B1: SLITRK1 ECD-immunoglobulin Fc domain-fusion protein (SLITRK1-WT-Fc) (Fc fusion)
chain: NVTGDVCKEKICSCNEIEGDLHVDCEKKGFTSLQRFTAPTSQFYHLFLHGNSLTRLFPNEFANFYNAVSLHMENNGLHEIVPGAFLGLQLVKRLHINNNKIKSFRKQTFLGLDDLEYLQADFNLLRDIDPGAFQDLNKLEVLILNDNLISTLPANVFQYVPITHLDLRGNRLKTLPYEEVLEQIPGIAEILLEDNPWDCTCDLLSLKEWLENIPKNALIGRVVCEAPTRLQGKDLNETTEQDLCPLKNRVDSSLPAPPAQEETFAPGPLPTPFKTNGQEDHATPGSAPNGGTKIPGNWQIKIRPTAAIATGSSRNKPLANSLPCPGGCSCDHIPGSGLKMNCNNRNVSSLADLKPKLSNVQELFLRDNKIHSIRKSHFVDYKNLILLDLGNNNIATVENNTFKNLLDLRWLYMDSNYLDTLSREKFAGLQNLEYLNVEYNAIQLILPGTFNAMPKLRILILNNNLLRSLPVDVFAGVSLSKLSLHNNYFMYLPVAGVLDQLTSIIQIDLHGNPWECSCTIVPFKQWAERLGSEVLMSDLKCETPVNFFRKDFMLLSNDEICPQLYARISPTLTSHSKNSTGLAETGTHSNSYLDTSRVS
